Reference: the supplement of paper PMC10724198
Values joined by “and” are separate entries in the source; they are usually repeats but may differ in a detail not shown here. Identical values can stand only once. ± gives the standard deviation of the averaged measurements.
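Wherever protein stability index of tFT-peptide fusion (C-terminal peptide) is given: PSI is a weighted mean of sequencing reads over stability bins, variants kept only with over 10 reads, mCherry proximal and sfGFP distal, peptide attached via GGGS linker.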
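Wherever protein stability index of tFT-peptide fusion in deletion strain of DAS1 is given: PSI is a weighted mean of each variant's read distribution over the sorted stability bins, computed only for variants having over 10 reads in total.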
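Wherever protein stability index of tFT-peptide fusion in deletion strain of DOA10 is given: PSI per variant is the weighted mean of its sequencing read distribution over the sorted stability bins, counting only variants with over 10 reads summed across bins.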

The sequences below were run on Saccharomyces cerevisiae (assay: protein stability index of tFT-peptide fusion (C-terminal peptide) (PSI (0-1 scale)); higher = more stable (slower turnover)). Settings: genetic background: doa10 deletion; temperature: 30 C.
Experimental: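 MPS profiling in S. cerevisiae of the tFT-X12 degron library: putative degron peptides plus stable controls, 12 aa, fused to the C-terminus of a sfGFP-mCherry timer. Cells are FACS-sorted into 8 mCherry/sfGFP bins and deep-sequenced. PSI runs from 0 (unstable) to 1 (stable). Backgrounds are wild type, das1Δ and doa10Δ at 30 °C, and wild type, das1Δ, cdc34-1 and cdc53-1 at 37 °C; 2-3 technical replicates each.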
Sequence ARWRVGLWRGAS has a protein stability index of 0.259 ± 0.0043. FSMRWTFRYWVN was tested, and the protein stability index was 0.0438 ± 0.012. Sequence LVVYLSCVACIN has a protein stability index of 0.0223 ± 0.0051.

Same assay, conditions: genetic background: wild type; temperature: 30 C
Sequence ARWRVGLWRGAS has a protein stability index of 0.3 ± 0.035. FSMRWTFRYWVN gave a protein stability index of 0.0542 ± 0.0043. LVVYLSCVACIN gave a protein stability index of 0.0185 ± 0.0067.

Same assay, conditions: genetic background: wild type; temperature: 37 C
For ARWRVGLWRGAS, the protein stability index was 0.612 ± 0.012. Sequence FSMRWTFRYWVN has a protein stability index of 0.0931 ± 0.022. LVVYLSCVACIN was tested, and the protein stability index was 0.0515 ± 0.034.

Each sequence was assayed on Saccharomyces cerevisiae in the same assay as above. Settings: genetic background: wild type; temperature: 30 C.
ARWRVGLWRGAS showed a protein stability index of 0.448 ± 0.028. FSMRWTFRYWVN gave a protein stability index of 0.112 ± 0.021. LVVYLSCVACIN gave a protein stability index of 0.0328 ± 0.013.

Each sequence was assayed on Saccharomyces cerevisiae (assay: protein stability index of tFT-peptide fusion in deletion strain of DAS1 (PSI (0-1 scale)); higher = more stable (slower turnover)). Settings: not given.
Experimental: (§1)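 MPS profiling in S. cerevisiae of two library types built from selected 12-aa C-degron peptides (IN1, IN2, LN1, LN3, VN2, R1-R5, W1-W3, Atg1 and Rpa12 C-termini): saturation mutagenesis libraries and C-terminal +1 capping libraries (13 aa). Each peptide is fused to the C-terminus of a sfGFP-mCherry timer, after a GGGS linker. Cells are FACS-sorted into 8 mCherry/sfGFP bins and sequenced. PSI runs from 0 (unstable) to 1 (stable), measured once in wild type and in the das1Δ or doa10Δ background.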
In the case of ARWRVGLWRGAS, the protein stability index is reported as 0.679. FSMRWTFRYWVN was tested, and the protein stability index was 0.528 and 0.476. LVVYLSCVACIN was tested, and the protein stability index was 0.032 and 0.0307. WDKRNHLIKLLN was tested, and the protein stability index was 0.602. Work on WRWRVGLWRGAS yielded a protein stability index of 0.764. Work on WVVYLSCVACIN yielded a protein stability index of 0.0589.

These sequences were tested on Saccharomyces cerevisiae (assay: protein stability index of tFT-peptide fusion in deletion strain of DOA10 (PSI (0-1 scale)); higher = more stable (slower turnover)). Settings: not given.
Experimental: as §1
In the case of ADTLPMCPLLLR, the protein stability index is reported as 0.679. AIELPMCPLLLR was tested, and the protein stability index was 0.677. AIMLPMCPLLLR showed a protein stability index of 0.612. AITLPACPLLLR was tested, and the protein stability index was 0.657. AITLPECPLLLR showed a protein stability index of 0.677. AITLPMCHLLLR gave a protein stability index of 0.663. AITLPMCPCLLR was tested, and the protein stability index was 0.651. In the case of AITLPMCPGLLR, the protein stability index is reported as 0.673. AITLPMCPLLHR was tested, and the protein stability index was 0.716. Sequence AITLPMCPLLLF has a protein stability index of 0.512. For AITLPMCPLLLL, the protein stability index was 0.625. Work on AITLPMCPLLLRE yielded a protein stability index of 0.634. For AITLPMCPLLLRH, the protein stability index was 0.646. AITLPMCPLLLRI was tested, and the protein stability index was 0.485. AITLPMCPLLLRR showed a protein stability index of 0.673. In the case of AITLPMCPLLLRV, the protein stability index is reported as 0.334. AITLPMCPLRLR gave a protein stability index of 0.666. Sequence AITLPMCPRLLR has a protein stability index of 0.675. Sequence AITLPMDPLLLR has a protein stability index of 0.681. Sequence AITLPMRPLLLR has a protein stability index of 0.637. AITLPMYPLLLR gave a protein stability index of 0.651. AITLPPCPLLLR gave a protein stability index of 0.673. Sequence AITYPMCPLLLR has a protein stability index of 0.655. AQTLPMCPLLLR gave a protein stability index of 0.686. CCVSLPILLFFR was tested, and the protein stability index was 0.606. Work on CLVHLPILLFFR yielded a protein stability index of 0.56. With CLVLLPILLFFR the protein stability index was 0.442. For CLVSLFILLFFR, the protein stability index was 0.433. CLVSLKILLFFR was tested, and the protein stability index was 0.282. CLVSLPICLFFR showed a protein stability index of 0.593. Sequence CLVSLPIILFFR has a protein stability index of 0.575. In the case of CLVSLPILAFFR, the protein stability index is reported as 0.613. With CLVSLPILLFDR the protein stability index was 0.65. Work on CLVSLPILLFFP yielded a protein stability index of 0.588. For CLVSLPILLFFY, the protein stability index was 0.435. CLVSLPILLLFR gave a protein stability index of 0.579. For CLVSLPILLYFR, the protein stability index was 0.597. In the case of CLVSLPILQFFR, the protein stability index is reported as 0.66. For CLVSLPTLLFFR, the protein stability index was 0.663. With CLVSLPVLLFFR the protein stability index was 0.614. CLVSLQILLFFR was tested, and the protein stability index was 0.264. For CLVSLVILLFFR, the protein stability index was 0.34. CLVSMPILLFFR gave a protein stability index of 0.601. Sequence CLVSYPILLFFR has a protein stability index of 0.603. CVTRLDAIYFRI was tested, and the protein stability index was 0.71. DITLPMCPLLLR was tested, and the protein stability index was 0.655. FLYMCSVGCWFR was tested, and the protein stability index was 0.563. For GLCMCSVGCWFR, the protein stability index was 0.608. Sequence GLNMCSVGCWFR has a protein stability index of 0.673. GLYMCFVGCWFR showed a protein stability index of 0.402. GLYMCSEGCWFR was tested, and the protein stability index was 0.706. GLYMCSRGCWFR gave a protein stability index of 0.677. GLYMCSTGCWFR gave a protein stability index of 0.684. In the case of GLYMCSVGCHFR, the protein stability index is reported as 0.663. In the case of GLYMCSVGCMFR, the protein stability index is reported as 0.636. GLYMCSVGCWFL gave a protein stability index of 0.598. GLYMCSVGCWFRK gave a protein stability index of 0.648. With GLYMCSVGCWFRT the protein stability index was 0.554. GLYMCSVGCWIR showed a protein stability index of 0.402. With GLYMCSVGCWLR the protein stability index was 0.537. GLYMCSVGCWWR gave a protein stability index of 0.634. GLYMCSVGKWFR showed a protein stability index of 0.674. With GLYMCSVRCWFR the protein stability index was 0.442. GLYMCSVTCWFR was tested, and the protein stability index was 0.327. GLYMDSVGCWFR gave a protein stability index of 0.727. In the case of GLYMMSVGCWFR, the protein stability index is reported as 0.604. For GLYMVSVGCWFR, the protein stability index was 0.38. Sequence GLYMWSVGCWFR has a protein stability index of 0.601. For GRYMCSVGCWFR, the protein stability index was 0.669. Work on ISLRVLLPLYFR yielded a protein stability index of 0.588. In the case of KSLRVLLPLYFR, the protein stability index is reported as 0.654. QITLPMCPLLLR was tested, and the protein stability index was 0.645. Work on QVTRLDAIYFRI yielded a protein stability index of 0.693. Sequence RLVSLPILLFFR has a protein stability index of 0.614. RPLRVLLPLYFR was tested, and the protein stability index was 0.666. RRTRLDAIYFRI was tested, and the protein stability index was 0.599. With RSLRILLPLYFR the protein stability index was 0.655. Sequence RSLRVDLPLYFR has a protein stability index of 0.69. For RSLRVLEPLYFR, the protein stability index was 0.69. RSLRVLLPLDFR gave a protein stability index of 0.723. Work on RSLRVLLPLIFR yielded a protein stability index of 0.671. With RSLRVLLPLYFRE the protein stability index was 0.703. Work on RSLRVLLPLYFRP yielded a protein stability index of 0.638. Sequence RSLRVLLPLYHR has a protein stability index of 0.682. RSLRVLLPLYLR was tested, and the protein stability index was 0.671. With RSLRVLLPLYSR the protein stability index was 0.642. In the case of RSLRVLLPTYFR, the protein stability index is reported as 0.664. Work on RSLVVLLPLYFR yielded a protein stability index of 0.634. RVERLDAIYFRI showed a protein stability index of 0.682. RVLRLDAIYFRI was tested, and the protein stability index was 0.666. RVSRLDAIYFRI showed a protein stability index of 0.671. For RVTFLDAIYFRI, the protein stability index was 0.621. In the case of RVTGLDAIYFRI, the protein stability index is reported as 0.683. Sequence RVTRLDAIFFRI has a protein stability index of 0.712. Sequence RVTRLDAIPFRI has a protein stability index of 0.724. Sequence RVTRLDAIQFRI has a protein stability index of 0.698. For RVTRLDAIYARI, the protein stability index was 0.724. RVTRLDAIYFLI showed a protein stability index of 0.119.
